Laboratory results taken from patent US20230242902A1, “A HIGHLY ERROR-PRONE […] R[…] FOR TARGETED CONTINUOUS EVOLUTION IN VIVO” (The Regents of the University of California, priority 2017, published 2023).

These molecules were tested on p1 (assay: p1 copy number by p1-encoded mKate2 fluorescence). Conditions: OR-Y24, measured in triplicate.
Type: cell-based, S. cerevisiae
How it was run: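 Copy number was inferred from p1-encoded mKate2 fluorescence in saturated OR-Y24 cultures (triplicate), calibrated linearly against qPCR of p1 leu2 relative to genomic LEU3.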

Molecule	Mean fold-increase over w.t. (p1 copy number)
T698L: TP-DNAP1 variant (protein) MDYKDKALNDLRNVYADFDSLPLDFRQILIKDRATLLQKEDVEKKILERQEDAKKYAEYLKQSEIPERISLPNIKRHKGVSISFEETSEDMVLEPRPFIFDGLNIRCFRRETIFSLKNKILNMVKESSSFKNVSRQSVSFMYFKIFNKGKVIASTKSVNIYEDKIDERLEDLCNNFDDVLKKIIDVTYGYESLFVSETYSYVIFYAKSIYFPQPRCVNNWGNNIPNILTFDSFKLFTANKNNVSCIKQCSRFLWQKDFNTLEEMIEYKNGNICIVTPQLHINDVRDIKSFNDIRLYSESPIKTFSVIDNTITYLFYFKEHLGVIFNITKSRHDRRVTKFSPLSKFSDVKNITVCFDIESYFDPEKESNQVNIPFICCASIIYNKVIGNIVDFEGRDCVAQMIEYVVDICGELNISSVELIAHNGGGYDFHYILSSMYNPAAIKNILIRNNSFISFNFAHDGVKFSVKDSYSFLLCSLANASKAFLNEETFKKTDFPHHDLKTADDLYKVYKEWSSVNTEINHVVEKEKLLITSEHIVNFTKNDKSKTLIEWSKDYCRNDVLVLSKVWLEFKNAVEDIFNCELVDQTMTLAGLSYKLFQANMPFDVELRHPNKEDYFNMREALIGGRCISVNGIYKDVLCLDVKSLYPASMAFYDQPYGSFKRVSSRPKDELGIYYVRVTPNRNNKSNFFPIRSHNKILYNNFEESTYIAWYTNVDIDIGLSEGHNIEYIPFDSYGNIGYSWSKKGKIFEKYIKDVLYKLKIKYEKQNNKVKRNVIKIIMNSLWGKFAQKWVNFEYFIKSEDDIDFESEEAYKIWDTDFMLIKKIKESTYSSKPIQNGVFTLSWARYHMKSIWDAGAKEGAECIYSDTDSIFVHKEHFKKNAKFMLNGLKVPIIGSEVGQLELECEFDKLLCAGKKQYMGFYTYFQDGKPCIKEKKRFKGIPSNYIIPELYAHLLSGADKEAKIQFLKFRREWGSVKGYIENKTVKAT	2 fold
E703R: TP-DNAP1 variant (protein) MDYKDKALNDLRNVYADFDSLPLDFRQILIKDRATLLQKEDVEKKILERQEDAKKYAEYLKQSEIPERISLPNIKRHKGVSISFEETSEDMVLEPRPFIFDGLNIRCFRRETIFSLKNKILNMVKESSSFKNVSRQSVSFMYFKIFNKGKVIASTKSVNIYEDKIDERLEDLCNNFDDVLKKIIDVTYGYESLFVSETYSYVIFYAKSIYFPQPRCVNNWGNNIPNILTFDSFKLFTANKNNVSCIKQCSRFLWQKDFNTLEEMIEYKNGNICIVTPQLHINDVRDIKSFNDIRLYSESPIKTFSVIDNTITYLFYFKEHLGVIFNITKSRHDRRVTKFSPLSKFSDVKNITVCFDIESYFDPEKESNQVNIPFICCASIIYNKVIGNIVDFEGRDCVAQMIEYVVDICGELNISSVELIAHNGGGYDFHYILSSMYNPAAIKNILIRNNSFISFNFAHDGVKFSVKDSYSFLLCSLANASKAFLNEETFKKTDFPHHDLKTADDLYKVYKEWSSVNTEINHVVEKEKLLITSEHIVNFTKNDKSKTLIEWSKDYCRNDVLVLSKVWLEFKNAVEDIFNCELVDQTMTLAGLSYKLFQANMPFDVELRHPNKEDYFNMREALIGGRCISVNGIYKDVLCLDVKSLYPASMAFYDQPYGSFKRVSSRPKDELGIYYVRVTPNRNNKSNFFPIRSHNKITYNNFRESTYIAWYTNVDIDIGLSEGHNIEYIPFDSYGNIGYSWSKKGKIFEKYIKDVLYKLKIKYEKQNNKVKRNVIKIIMNSLWGKFAQKWVNFEYFIKSEDDIDFESEEAYKIWDTDFMLIKKIKESTYSSKPIQNGVFTLSWARYHMKSIWDAGAKEGAECIYSDTDSIFVHKEHFKKNAKFMLNGLKVPIIGSEVGQLELECEFDKLLCAGKKQYMGFYTYFQDGKPCIKEKKRFKGIPSNYIIPELYAHLLSGADKEAKIQFLKFRREWGSVKGYIENKTVKAT	1.84 fold
T698M: TP-DNAP1 variant (protein) MDYKDKALNDLRNVYADFDSLPLDFRQILIKDRATLLQKEDVEKKILERQEDAKKYAEYLKQSEIPERISLPNIKRHKGVSISFEETSEDMVLEPRPFIFDGLNIRCFRRETIFSLKNKILNMVKESSSFKNVSRQSVSFMYFKIFNKGKVIASTKSVNIYEDKIDERLEDLCNNFDDVLKKIIDVTYGYESLFVSETYSYVIFYAKSIYFPQPRCVNNWGNNIPNILTFDSFKLFTANKNNVSCIKQCSRFLWQKDFNTLEEMIEYKNGNICIVTPQLHINDVRDIKSFNDIRLYSESPIKTFSVIDNTITYLFYFKEHLGVIFNITKSRHDRRVTKFSPLSKFSDVKNITVCFDIESYFDPEKESNQVNIPFICCASIIYNKVIGNIVDFEGRDCVAQMIEYVVDICGELNISSVELIAHNGGGYDFHYILSSMYNPAAIKNILIRNNSFISFNFAHDGVKFSVKDSYSFLLCSLANASKAFLNEETFKKTDFPHHDLKTADDLYKVYKEWSSVNTEINHVVEKEKLLITSEHIVNFTKNDKSKTLIEWSKDYCRNDVLVLSKVWLEFKNAVEDIFNCELVDQTMTLAGLSYKLFQANMPFDVELRHPNKEDYFNMREALIGGRCISVNGIYKDVLCLDVKSLYPASMAFYDQPYGSFKRVSSRPKDELGIYYVRVTPNRNNKSNFFPIRSHNKIMYNNFEESTYIAWYTNVDIDIGLSEGHNIEYIPFDSYGNIGYSWSKKGKIFEKYIKDVLYKLKIKYEKQNNKVKRNVIKIIMNSLWGKFAQKWVNFEYFIKSEDDIDFESEEAYKIWDTDFMLIKKIKESTYSSKPIQNGVFTLSWARYHMKSIWDAGAKEGAECIYSDTDSIFVHKEHFKKNAKFMLNGLKVPIIGSEVGQLELECEFDKLLCAGKKQYMGFYTYFQDGKPCIKEKKRFKGIPSNYIIPELYAHLLSGADKEAKIQFLKFRREWGSVKGYIENKTVKAT	1.75 fold
E298G, S305F: TP-DNAP1 variant (protein) MDYKDKALNDLRNVYADFDSLPLDFRQILIKDRATLLQKEDVEKKILERQEDAKKYAEYLKQSEIPERISLPNIKRHKGVSISFEETSEDMVLEPRPFIFDGLNIRCFRRETIFSLKNKILNMVKESSSFKNVSRQSVSFMYFKIFNKGKVIASTKSVNIYEDKIDERLEDLCNNFDDVLKKIIDVTYGYESLFVSETYSYVIFYAKSIYFPQPRCVNNWGNNIPNILTFDSFKLFTANKNNVSCIKQCSRFLWQKDFNTLEEMIEYKNGNICIVTPQLHINDVRDIKSFNDIRLYSGSPIKTFFVIDNTITYLFYFKEHLGVIFNITKSRHDRRVTKFSPLSKFSDVKNITVCFDIESYFDPEKESNQVNIPFICCASIIYNKVIGNIVDFEGRDCVAQMIEYVVDICGELNISSVELIAHNGGGYDFHYILSSMYNPAAIKNILIRNNSFISFNFAHDGVKFSVKDSYSFLLCSLANASKAFLNEETFKKTDFPHHDLKTADDLYKVYKEWSSVNTEINHVVEKEKLLITSEHIVNFTKNDKSKTLIEWSKDYCRNDVLVLSKVWLEFKNAVEDIFNCELVDQTMTLAGLSYKLFQANMPFDVELRHPNKEDYFNMREALIGGRCISVNGIYKDVLCLDVKSLYPASMAFYDQPYGSFKRVSSRPKDELGIYYVRVTPNRNNKSNFFPIRSHNKITYNNFEESTYIAWYTNVDIDIGLSEGHNIEYIPFDSYGNIGYSWSKKGKIFEKYIKDVLYKLKIKYEKQNNKVKRNVIKIIMNSLWGKFAQKWVNFEYFIKSEDDIDFESEEAYKIWDTDFMLIKKIKESTYSSKPIQNGVFTLSWARYHMKSIWDAGAKEGAECIYSDTDSIFVHKEHFKKNAKFMLNGLKVPIIGSEVGQLELECEFDKLLCAGKKQYMGFYTYFQDGKPCIKEKKRFKGIPSNYIIPELYAHLLSGADKEAKIQFLKFRREWGSVKGYIENKTVKAT	2.06 fold
